{"source": "patent US20190040149A1", "about": "(Innovent, published 2019)", "key": {"[1]": {"molecular_target": "T1, human PD-1 (soluble antigen of the MSD assay, b-PD-1 monomer) (human, UniProt Q15116 25-170, limits assumed, biotinylated (b-PD-1), site not stated)", "T1 construct": "The antigen format of the 'avid' measurement is not described", "T1 sequence (Q15116 25-170 limits assumed)": "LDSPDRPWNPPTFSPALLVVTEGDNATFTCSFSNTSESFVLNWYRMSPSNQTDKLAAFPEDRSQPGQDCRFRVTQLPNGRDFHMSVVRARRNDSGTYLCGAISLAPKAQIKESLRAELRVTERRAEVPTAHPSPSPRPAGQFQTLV", "experiment": "MSD solution equilibrium titration, monovalent KD", "procedure": "(§1) Equilibrium affinity measurements are performed as previously described (Estep, P., et al., MAbs, 2013. 5(2): p. 270-8). Solution equilibrium titrations (SET) are performed in PBS+0.1% IgG-Free BSA (PBSF) where antigen (b-PD-1 monomer) is held constant at 10-100 pM and is incubated with 3- to 5-fold serial dilutions of Fab or mAbs starting at 5-100 nM (experimental condition is sample dependent). Antibodies diluted at 20 nM in PBS are coated onto standard bind MSD-ECL plates overnight at 4° C. or at room temperature for 30 min. Plates are blocked with BSA for 30 min whilst shaking at 700 rpm. Plates are then washed 3× with wash buffer (PBSF+0.05% Tween 20). SET samples are applied and incubated on the plates for 150 s with shaking at 700 rpm followed by one wash. Antigen captured on a plate is detected with 250 ng/mL sulfotag-labeled streptavidin in PBSF by incubation on the plate for 3 min. The plates are washed three times with wash buffer and are then read on the MSD Sector Imager 2400 instrument using 1× Read Buffer T with surfactant. The percent free antigen is plotted as a function of titrated antibody in Prism and fit to a quadratic equation to extract the KD. To improve throughput, liquid handling robots are used throughout MSD-SET experiments, including for SET sample preparation."}, "[2]": {"molecular_target": "T2, murine PD-1 (soluble antigen of the MSD assay) (mouse, UniProt Q02242 25-169, limits assumed)", "T2 construct": "also called mouse PD-1", "T2 sequence": "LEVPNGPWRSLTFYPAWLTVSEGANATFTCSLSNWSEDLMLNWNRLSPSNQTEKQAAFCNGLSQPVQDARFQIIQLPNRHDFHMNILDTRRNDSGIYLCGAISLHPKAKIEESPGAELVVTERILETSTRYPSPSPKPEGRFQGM", "experiment": "MSD solution equilibrium titration, monovalent KD", "procedure": "as §1"}, "murine PD-1 on CHO cells": {"molecular_target": "T3, murine PD-1 on CHO cells (mouse, UniProt Q02242 25-288)", "T3 sequence": "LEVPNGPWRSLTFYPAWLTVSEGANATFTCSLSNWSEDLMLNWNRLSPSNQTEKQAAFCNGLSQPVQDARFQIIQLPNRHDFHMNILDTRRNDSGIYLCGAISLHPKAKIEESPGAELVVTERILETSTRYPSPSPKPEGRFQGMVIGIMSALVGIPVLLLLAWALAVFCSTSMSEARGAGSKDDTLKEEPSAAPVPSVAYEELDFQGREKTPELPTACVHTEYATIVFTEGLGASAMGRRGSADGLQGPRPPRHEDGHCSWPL", "experiment": "flow cytometry on CHO cells with murine PD-1", "procedure": "(§2) Cells are then washed 3×, and are incubated with a secondary antibody (PE-labelled, at final concentration of 5 μg/ml) in PBS 1% BSA for 30 min on ice (protected from light). Cells are washed 3× and analyzed via flow cytometry. Flow cytometry is performed on an Accuri C6 system (BD Biosciences) and MFIs are calculated on the C6 software. EC50 s are calculated on Graphpad software."}, "[3]": {"molecular_target": "T4, human PD-1 on cells (CHO cells; T cells in the mixed lymphocyte reaction) (human, UniProt Q15116 25-288)", "T4 construct": "also called human PD-1 on CHO cells", "T4 sequence (Q15116 25-288 limits assumed)": "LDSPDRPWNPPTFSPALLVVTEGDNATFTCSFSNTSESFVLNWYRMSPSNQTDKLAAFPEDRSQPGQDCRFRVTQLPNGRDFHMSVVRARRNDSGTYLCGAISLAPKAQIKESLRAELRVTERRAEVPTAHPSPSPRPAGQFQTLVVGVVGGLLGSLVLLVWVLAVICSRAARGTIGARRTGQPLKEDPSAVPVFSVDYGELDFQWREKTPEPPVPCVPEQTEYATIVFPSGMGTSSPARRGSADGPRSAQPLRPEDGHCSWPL", "experiment": "flow cytometry on CHO cells with human PD-1 (n=1)", "procedure": "as §2"}, "[4]": {"molecular_target": "T4, human PD-1 on cells (CHO cells; T cells …)", "experiment": "flow cytometry, remaining PD-L2-FITC signal after 100 nM antibody; competitor PD-L2-FITC", "procedure": "CHO cells 0.2×10⁶ are incubated with the experimental antibody (100 nM) for 30 min in PBS 1% BSA on ice. […] Cells are washed 3× and analyzed via flow cytometry. Flow cytometry is performed on an Accuri C6 system (BD Biosciences) and MFIs are calculated on the C6 software. EC50 s are calculated on Graphpad software."}, "[5]": {"molecular_target": "T4, human PD-1 on cells (CHO cells; T cells …)", "experiment": "cell-based or functional assay"}, "[6]": {"molecular_target": "T4, human PD-1 on cells (CHO cells; T cells …)", "experiment": "cell-based or functional assay", "remark": "listed apart in the source"}, "[7]": {"molecular_target": "T1, human PD-1 (soluble antigen of the MSD …)", "experiment": "MSD solution equilibrium titration, avid KD", "procedure": "as §1"}, "[8]": {"molecular_target": "T2, murine PD-1 (soluble antigen of the MSD …)", "experiment": "MSD solution equilibrium titration, avid KD", "procedure": "as §1"}, "human PD-1_HIS": {"molecular_target": "T5, human PD-1_HIS (human, UniProt Q15116 25-167, limits assumed)", "T5 construct": "not shown: His tag", "T5 sequence (Q15116 25-167 limits assumed)": "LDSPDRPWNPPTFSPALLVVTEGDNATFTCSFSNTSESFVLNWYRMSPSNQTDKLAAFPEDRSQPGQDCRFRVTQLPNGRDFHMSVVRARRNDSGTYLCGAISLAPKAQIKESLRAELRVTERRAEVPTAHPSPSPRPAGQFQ", "experiment": "bio-layer interferometry (ForteBio), human PD-1_HIS in solution, IgG on sensor tip", "procedure": "Briefly, ForteBio affinity measurements were performed by loading IgGs online onto AHQ sensors. Sensors were equilibrated off-line in assay buffer for 30 min and then monitored on-line for 60 seconds for baseline establishment. Sensors with loaded IgGs were exposed to 100 nM antigen for 5 min, afterwards they were transferred to assay buffer for 5 min for off-rate measurement. Kinetics was analyzed using the 1:1 binding model."}}, "data": [{"binder": "Antibody E, IgG1 format expressed in yeast (antibody, V domains shown, Tested in IgG1 format, expressed in yeast) VH: QVQLVQSGAEVKKPGASVKVSCKASGYTFTSNYMHWVRQAPGQGLEWMGIINPSEGSTGYAQKFQGRVTMTRDTSTSTVYMELSSLRSEDTAVYYCAKEGVADGYGLVDVWGQGTMVTVSS VL: EIVLTQSPATLSLSPGERATLSCRASQSVSSYLAWYQQKPGQAPRLLIYDASKRATGIPARFSGSGSGTDFTLTISSLEPEDFAVYYCDQRNNWPLTFGGGTKVEIK", "values": [{"measurement": "Kd", "setting": "[1]", "value": 0.091, "unit": "nM"}, {"measurement": "Kd", "setting": "[2]", "value": 1.1, "unit": "nM"}, {"measurement": "EC50", "setting": "murine PD-1 on CHO cells", "value": 5.04, "unit": "nM"}, {"measurement": "EC50", "setting": "[3]", "value": 4.59, "unit": "nM"}, {"measurement": "MFI (PD-L2-FITC)", "setting": "[4]", "value": 38700, "unit": "MFI"}, {"measurement": "IL-2 in supernatant, 0.01 nM IgG", "setting": "[5]", "value": 580, "unit": "pg/mL"}, {"measurement": "IL-2 in supernatant, 0.1 nM IgG", "setting": "[5]", "value": 614, "unit": "pg/mL"}, {"measurement": "IL-2 in supernatant, 1 nM IgG", "setting": "[5]", "value": 978, "unit": "pg/mL"}, {"measurement": "IL-2 in supernatant, 10 nM IgG", "setting": "[5]", "value": 1360, "unit": "pg/mL"}, {"measurement": "IL-2 in supernatant, 100 nM IgG", "setting": "[5]", "value": 1980, "unit": "pg/mL"}, {"measurement": "IL-2 secretion fold change vs. IgG control, 0.01 nM IgG", "setting": "[5]", "value": 1.13, "unit": "fold"}, {"measurement": "IL-2 secretion fold change vs. IgG control, 0.1 nM IgG", "setting": "[5]", "value": 1.21, "unit": "fold"}, {"measurement": "IL-2 secretion fold change vs. IgG control, 1 nM IgG", "setting": "[5]", "value": 1.95, "unit": "fold"}, {"measurement": "IL-2 secretion fold change vs. IgG control, 10 nM IgG", "setting": "[5]", "value": 2.61, "unit": "fold"}, {"measurement": "IL-2 secretion fold change vs. IgG control, 100 nM IgG", "setting": "[5]", "value": 3.2, "unit": "fold"}, {"measurement": "IFNg secretion fold change vs. IgG control, 0.01 nM IgG", "setting": "[6]", "value": 0.96, "unit": "fold"}, {"measurement": "IFNg secretion fold change vs. IgG control, 0.1 nM IgG", "setting": "[6]", "value": 1.26, "unit": "fold"}, {"measurement": "IFNg secretion fold change vs. IgG control, 1 nM IgG", "setting": "[6]", "value": 1.86, "unit": "fold"}, {"measurement": "IFNg secretion fold change vs. IgG control, 10 nM IgG", "setting": "[6]", "value": 2.01, "unit": "fold"}, {"measurement": "IFNg secretion fold change vs. IgG control, 100 nM IgG", "setting": "[6]", "value": 1.76, "unit": "fold"}, {"measurement": "IFNγ in supernatant, 0.01 nM IgG", "setting": "[6]", "value": 14300, "unit": "pg/mL"}, {"measurement": "IFNγ in supernatant, 0.1 nM IgG", "setting": "[6]", "value": 13800, "unit": "pg/mL"}, {"measurement": "IFNγ in supernatant, 1 nM IgG", "setting": "[6]", "value": 21600, "unit": "pg/mL"}, {"measurement": "IFNγ in supernatant, 10 nM IgG", "setting": "[6]", "value": 27100, "unit": "pg/mL"}, {"measurement": "IFNγ in supernatant, 100 nM IgG", "setting": "[6]", "value": 26300, "unit": "pg/mL"}, {"measurement": "Kd", "setting": "[7]", "value": 0.022, "unit": "nM"}, {"measurement": "Kd", "setting": "[8]", "value": 0.33, "unit": "nM"}, {"measurement": "Kd", "setting": "human PD-1_HIS", "value": 1.2, "unit": "nM"}]}]}
